Results on five molecules are retold here after US20230399395A1 (SHANGHAI NOVAMAB BIOPHARMACEUTICALS, published 2023).

Test [1] has as its target T1, human IL5 (human, UniProt P05113 20-134, biotinylated (IL5-biotin) in Examples 2, 5, 6, 9 and 11; site not stated). Put plainly: cell-based or functional assay.
The target of test [2] is T1, human IL5. Nature of the test: Flow cytometry, blocking of IL5-biotin binding to HEK293F cells expressing IL5R.
Protocol: Specifically, The HEK293F stable cells with high expression of IL5R were centrifuged at 1000 rpm for 5 min, and the supernatant was discarded. The cells were washed once with 5 mL PBS and then resuspended with 2 mL PBS. After counting, the cells were divided into a 96-well plate with 3×10⁵ cells per well. […] After centrifugation at 4° C. at 3000 rpm, 200 μL PBS was added to each well, and then centrifuged at 3000 rpm and 4° C. for 4 min after resuspension. The diluted SA-PE antibody (diluted at 0.3:100) was added and incubated at 4° C. for 20 min. After centrifugation at 4° C. for 4 min at 3000 rpm, the supernatant was discarded, and 200 μL PBS was added to each well to wash the cells twice. Then 200 μL PBS was added to resuspend the cells, transfer to a flow tube, and the PE signal of each sample was detected by flow cytometry.
Test [3] addresses T1, human IL5. Nature of the test: BLI (Fortebio Red96), 1:1 global fit.
Protocol: Probes coated with Protein A were used to capture antibody, capture time 180 s; binding to gradient diluted antigen, binding time 300 s; dissociation time 360 s; 10 mM glycine (pH 1.7) was used to regenerate 3 times, each time for 5 s. Fortebio Analysis version 9.0 was used for the analysis, the 1:1 binding model Global mode was fitted, and the binding rate (Kon), the dissociation rate (Kdis) and the dissociation constant KD were calculated.
The target in another test is T2, mouse IL5 (mouse, UniProt P04401 21-133).
T2 sequence (looked up): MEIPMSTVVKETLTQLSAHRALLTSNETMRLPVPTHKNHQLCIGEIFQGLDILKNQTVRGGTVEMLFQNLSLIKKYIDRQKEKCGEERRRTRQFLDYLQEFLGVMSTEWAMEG
Nature of the test: ELISA, coated IL5, anti-HA detection.

Protocol for mouse IL5: After washing 5 times with PBST, 300 μL 1% BSA was added to each well for blocking at room temperature for 2 hours. […] Then the plate was washed for 5 times with PBST, 100 μL diluted mouse anti-HA antibody (1:2000 dilution) was added and incubated for 1 hour at 37° C. After washing 5 times with PBST, 100 μL diluted alkaline phosphatase modified anti-mouse antibody (1:2000 dilution) was added and incubated at 37° C. for 1 hour. Then the plate was washed with PBST for 5 times, developing solution was added, and the absorption value was measured at 405 nm wavelength by a microplate reader.

B1: bivalent biepitope IL5 nanobody HuNb66-HuNb21 expressed by yeast (VHH)
chain: EVQLQESGGGLVQPGGSLRLSCAASGYTVSSNMGWFRQAPGKEREGVAAIYPDGATYYADSVKGRFTISRDNSENTLYLQMNSLRAEDTAMYYCAADLAFNGLGTLALHGYWGQGTLVTVSSGGGGSGGGGSGGGGSGGGGSEVQLQESGGGLVQPGGSLRLSCAASGYPYSGDYCMGWFRQAPGKEREGVAAFYTGGGSTYYADSVKGRFTISRDNSKNTLYLQMNSLRAEDTAVYYCAADPWSVYGGSCGVKDPNPKAFNYWGQGTLVTVSS
notes: also called bivalent biepitopic antibody HuNb66-HuNb21
Consider B1, for which the “IC50 of inhibition of the proliferation of TF-1 cells induced by IL5 (CCK8, OD450)” value in the test with human IL5 [1] stood at 0.0512 nM. This molecule came in with an IC50 with human IL5 [2] of 0.841 µg/mL.

B2: Nb92 (VHH)
VHH: QVQLQESGGGLVQPGGSLRLSCAASGFTFSNYYMSWVRQAPGKGLEWVSSISSDGSNTYYEDSVKGRFTISRDNANNTLYLQMNSLKSEDTALYHCATDLYDDSWYDHWGQGTQVTVSS
notes: Camel nanobody, prokaryotic expression from the pMECS vector; It was detected with anti-HA antibody
Regarding B2, the Kd in the test with human IL5 [3] was < 1 nM. Moreover, the binding result with mouse IL5 is listed as “no binding”.

B3: Nb66 (VHH)
VHH: QVQLQESGGGSVQAGGSLRLSCAASGYTVSSNMGWFRQAPGKEREGVAAIYPDGATYYADSVKGRFTISQDNAENTVYLQMNSLKPEDTAMYYCAADLAFNGLGTLALHGYWGQGTQVTVSS
notes: as for B2
For B3, in the test with human IL5 [3], the Kd is < 1 nM. Moreover, the binding result with mouse IL5 is “no binding”.

B4: Nb25 (VHH)
VHH: QVQLQESGGGSVQAGGSLRLSCAASEYTYSRYCMGWFRQVPGKEREGVATIDSDGSTSYADSVKGRFTISKDNAKNTLYLQMNSLKPEDTAMYYCAARYFYIATTGLRPCGEYEYNYWGQGTQVTVSS
notes: as for B2
Regarding B4, the Kd in the test with human IL5 [3] is < 1 nM. In addition, in the test with mouse IL5, the binding result was “no binding”.

B5: Nb21 (VHH)
VHH: QVQLQESGGGSAQAGGSLKLSCVVSGYPYSGDYCMGWFRQAPGKEREGVAAFYTGGGSTYYADSVKGRFTTSQDNATSTFHLQMNSLKPEDTATYYCAADPWSVYGGSCGVKDPNPKAFNYWGQGTQVTVSS
notes: Camel nanobody, prokaryotic expression from the pMECS vector; also called Nb21-biotin
In the case of B5, the dissociation constant (Kd) in the test with human IL5 [3] is < 1 nM. For the same molecule, the binding result with mouse IL5 is “no binding”.
